Measured values as given in patent US20160272691A1, “COMPOSITIONS AND METHODS FOR TREATING CONDITIONS ASSOCIATED WITH y-HERPESVIRUSES” (NDSU RESEARCH FOUNDATION, priority 2013, published 2016).

Experiments:
[1] = molecular target: Bcl-XL expressed in MCF7 cells (UniProt Q07817); assay: cell-based or functional assay
[2] = molecular target: T1, M11 expressed in MCF7 cells (murine γHV68) (UniProt P89884); assay: cell-based or functional assay
T1 sequence: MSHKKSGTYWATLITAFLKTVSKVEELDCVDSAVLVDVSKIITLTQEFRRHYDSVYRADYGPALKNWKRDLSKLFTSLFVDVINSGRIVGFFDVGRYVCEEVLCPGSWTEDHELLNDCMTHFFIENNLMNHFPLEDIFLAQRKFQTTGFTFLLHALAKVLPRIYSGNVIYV

Chain of Bcl-XL expressed in MCF7 cells (Q07817 whole entry): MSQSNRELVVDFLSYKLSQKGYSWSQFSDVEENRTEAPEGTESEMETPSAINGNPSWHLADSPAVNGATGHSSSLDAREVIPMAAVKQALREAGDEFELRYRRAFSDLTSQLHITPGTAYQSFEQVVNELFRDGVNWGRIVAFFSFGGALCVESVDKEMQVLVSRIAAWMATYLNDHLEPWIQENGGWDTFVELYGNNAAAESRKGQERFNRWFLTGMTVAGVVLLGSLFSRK

Substance	Bcl-XL-mediated down-regulation of autophagy (GFP-LC3 puncta per cell, MCF7) [1]	M11-mediated down-regulation of autophagy (GFP-LC3 puncta per cell, MCF7) [2]
Beclin 1 F123A mutant, expressed in MCF7 cells (from UniProt Q14457 1-450)	0.00246 p (t-test)	0.0107 p (t-test)
Beclin 1 G120E mutant, expressed in MCF7 cells (from UniProt Q14457 1-450)	0.0119 p (t-test)	0.0313 p (t-test)
Beclin 1 G120E+D121A double mutant, expressed in MCF7 cells (from UniProt Q14457 1-450)	0.00079 p (t-test)	0.228 p (t-test)
Beclin 1 K117A mutant, expressed in MCF7 cells (from UniProt Q14457 1-450)	0.504 p (t-test)	0.157 p (t-test)
Beclin 1 L112A mutant, expressed in MCF7 cells (from UniProt Q14457 1-450)	0.0621 p (t-test)	0.00065 p (t-test)
Beclin 1 L116A mutant, expressed in MCF7 cells (from UniProt Q14457 1-450)	0.00212 p (t-test)	0.00432 p (t-test)
